Measurements: the DeepSol protein solubility set

test: soluble on expression in E. coli; label from the status in PepcDB or PDB records

Sequence | soluble on expression in E. coli
MGEEFEKLMKKFENVNKDGEIVEDEDEWEEFFKQEEYVKIPKDRIAVLIGKKGQTKKEIEKRTKTKITIDSETGEVWITSTKETEDPLAVWKARDIVLAIGRGFSPERAFRLLNEGEYLEIINLTDIIIGNEKNALPRVRGRIIGRKGRTRQIIEEMSGASVSVYGKTVAIIGNPIQIEIAKTAIEKLARGSPHGSVYRYLERRKKDLELEGAMYYENL | soluble
MGSDKIHHHHHHMTKRDPSTLIRIARENGAEAEAEPLDLGARVRELRKARDWTLEQAASQAGLARSTLSKIENGQMSPTYDALKKLAVGLQISVPQLFTPPQKGQVNGRMTVTKSGSGSGHATATYEHELLADSLTKKQMLPYRARVRARAMEEFDGWVRHDGEEFLYVLTGVIRLYTEFYEPIEMRRGDSAYYDASMGHNVVSVSDEDATILWVTSLV | not soluble
MLDKLDRLEEEYRELEALLSDPEVLKDKGRYQSLSRRYAEMGEVIGLIREYRKVLEDLEQAESLLDDPELKEMAKAEREALLARKEALEKELERHLLPKDPMDERDAIVEIRAGTGGEEAALFARDLFNMYLRFAEEMGFETEVLDSHPTDLGGFSKVVFEVRGPGAYGTFKYESGVHRVQRVPVTETQGRIHTSTATVAVLPKAEEEDFALNMDEIRIDVMRASGPGGQGVNTTDSAVRVVHLPTGIMVTCQDSRSQIKNREKALMILRSRLLEMKRAEEAERLRKTRLAQIGTGERSEKIRTYNFPQSRVTDHRIGFTTHDLEGVLSGHLTPILEALKRADQERQLAALAEG | soluble
MGSDKIHHHHHHMPNIEKYEIFLDFNGNEYEGVEKIYLNSEEEKLELDSVNLEIRSVKSDGKDTKFELKGEKLVIYGKIERELEIKFKGKASRDSILGIYVAPYDGKGMITTQFEAVYARRFIPCFDHPAMKARFKLSVRVQKGLKVISNMPVERIEEDVDGKVIYRFQETPKMSTYLLYLGIDEFEEISDNSKQPTVILATVPGKSKRGLFAINVARKVIEFYEKYFEIPYQLPKVHLIQVPEFAAGAMENWGAITFRETALLADDSSSISQKFRVAEVVAHELAHQWFGNLVTLKWWDDLWLNESFATFMSYKSIKHLFPQWDSEGHLIYDESIGALEDDSLSTTHPIEAHVKDPHEIEQMFDNISYGKGASILKMIEAYVGEENFRRGVVNYLNSFKFGNAEGKDLWNSISNAAGQSIGEIMADWITKPGYPVIFVNAYGNSIRFSQKRFTLLDSGLNEVYKVPITYEINDKFGTLLLDKESAEIRLDEGLKSIKVNINRTGFYRVLYDSLNLAFSSKLNAYEELGLVNDYWNFLLADLIDAKTYFGVIGRFVYTSNSFVSREITSQLLTLYYLFKKNYGKDFLVNQVKIFRKANDDLGKLAYSTVISALARMDEEFALGLSTLFDQYENIDSNIKEAVAIAYAVTNNDFNTLLEKYKRYTIDEEKNRILSAISSLRDPSIVVKVFSLIFERNIKAQDTRFVISSLLHNPHIREEVCSYLMNNFEEVKKFVNTVYGGPWGLGSIVRSMSFCGVDKPKDIIDFLEKVKFKEIERPIKESEERIKVYSRLKQNLP | not soluble
MGAGMLGNINDIDLRMLRTFCAIVEAGGFTAAQARLNTSLSRLSVLVRDLEVRLGYSLCRRGNGGFQLTEEGQELYDAALGLFSDIARFREQVRGLGGRDREALHLGCVDGVIGQHCLPLPLAIRLFRQRAPEVLLKLHTRRPDELEHAVLEERLQLAVGAFHHRLSGLYYQPLFREEQNLYCGSAHPFFARADDEPTLGEICAADYVGRGYMAENHRPHDLRFNQGTDAYTMEAIATLVFSGTYIGYLPTHYAATWVAEGRMRAIRPRQLAYDSEFHCITRQGHEERPTLTLFLRSLFEAQKQLGVQVPANTNGIARQL | not soluble
MGSDKIHHHHHHMSWPLDDETASPHFSIRCLEEPMLINADFSRRAIVTPHEYQWVASPQGGVERVMLDRVGAEKARATSIVRYAPGSHFPRHQHPAGEEILVLSGTFSDEGGHYPAGWYLRNPPGSCHQPSSREGAMIFVKLRQMPLHEARRVRVDTRDPAAWRRQNGREVCPLFADDAEQVCLHRMAPNDALVAAQGDGAELLVLTGAVVAEGEIYGRGSWIRVPADDSLHVVAASQGATVYLKTGLPVAIGAEV | not soluble
MGSDKIHHHHHHMRIILYTGKGGVGKTSISAATALQSAKQGLKTLVMSTDPAHSLGDSFGIKLSSEPLEIRENLWAQEINTIYEMEKGWGKLQKYITLLFTSKAADDITTEELTMFPGMEDLISLLRVLDYYKQNTYDVIIIDCAPTGETLAMLSFPDMLGWWMEKLFPIKRKVLKVVRPVAQPLLGVPLPTDDIMDELTNTLEQLGEMRDILSNRDVTSIRIVVNPEKMVIKEAQRSFTYLNLYDYNVDAIMINRVIPNTVIDPYFQAWKDTQKKYKTLIQNSFDPLPIYEAPMFEQEVVGLPMLERVGDALFKEDYCPTEVKFNGRTQYVKKDGDEYIFVLSIPFSNKSELALNQKGDELIIRAGSVKRNITLPKTLTHLSIQGAKFEDDVLNIRFGGVVHA | not soluble
GSMSSFLGKWKLSESHNFDAVMSKLGVSWATRQIGNTVTPTVTFTMDGDKMTMLTESTFKNLSCTFKFGEEFDEKTSDGRNVKSVVEKNSESKLTQTQVDPKNTTVIVREVDGDTMKTTVTVGDVTAIRNYKRLS | soluble
MMTESHGYLSNNLPVKIINDIIYATQLVEDLVLGKIKIVDFLKSYNNFYCWLGFDELPQSEKIKFLSYLNILSIHKEIQDETVNRVYTD | not soluble
MTDNTAVRRRYEKSFTERPGFTEDEIEEIREAFNLLDTDGTGTIDPKEIKCAMQSLGLDAKNPMIFRMIADLEKDGYSSIDFEEFMEVITSKLGNKDTREGIQRIFNLFDDDKTGSISLKNLKRVAKELGETLTDEELRDMIDRADSKGEGEISFEDFYTIMTKKSFL | not soluble
ADQRIKVAKPVVEMDGDEMTRIIWQFIKEKLILPHVDVQLKYFDLGLPNRDQTNDQVTIDSALATQKYSVAVKCATITPDEARVEEFKLKKMWKSPNGTIRNILGGTVFREPIICKNIPRLVPGWTKPITIGRHAHGDQYKATDFVVDRAGTFKIVFTPKDGSSAKQWEVYNFPAGGVGMGMYNTDESISGFAHSCFQYAIQKKWPLYMSTKNTILKAYDGRFKDIFQEIFEKHYKTDFDKYKIWYEHRLIDDMVAQVLKSSGGFVWACKNYDGDVQSDILAQGFGSLGLMTSVLVCPDGKTIEAEAAHGTVTRHYREHQKGRPTSTNPIASIFAWTRGLEHRGKLDGNQDLIRFAQTLEKVCVETVESGAMTKDLAGCIHGLSNVKLNEHFLNTSDFLDTIKSNLDRALGRQ | soluble
GMIGDGIENSPLLTDLAFPYRLLGAGKESRECLFLLHGSGVDETTLVPLARRIAPTATLVAARGRIPQEDGFRWFERIDPTRFEQKSILAETAAFAAFTNEAAKRHGLNLDHATFLGYSNGANLVSSLMLLHPGIVRLAALLRPMPVLDHVPATDLAGIRTLIIAGAADETYGPFVPALVTLLSRHGAEVDARIIPSGHDIGDPDAAIVRQWLAGPIAIAQAD | soluble
MGSDKIHHHHHHMPPAIAPRFIYCRVCDACGFAARRSRFSGHAASGHRAAASAFLRPRMNVTTSDDCIGVLPDHPWAKHFIVLGYRDGAFSTIPNNFFRNWLDEEAQVGTFHIGRCSGLGVGSIAKYDQGLQKLVIGKNVAGGMRLRFLLNGQHEMRTISTSLFSIYGNGLENAPMPQYPDTVIHNDVWIGDEALFLGGSQIESGCVIGARAVIPPNFRTEAYGIYAGSPARLVRFRFTEKVREKLLQLAWWDMPLDWIKRNNHAFLVDLTANEGRALDTLAALQESKDNATGEAGRQTAAATPV | not soluble
MSLSELGLGDPERPLDAVLHGFSISQSETIGRRTEMEDVTMIIKDFASYRRGRSSYRGAKCHESGHKEILLGIFDGHGGTECSSMVGDLFPVAFADALNSVLYAAQLNHAYDLPDSVWEPLFVGVFLRLDDTLRLKNIQSGSTAAICFILDNLVVSANCGDSRTVLTRDEAMIKSFGCDSMLYKVEGPTRSSRINEISSGSLLQLEQSQTAQLSGHAIINSARYFMNPEETSEEALVSAKRRGKRVEGLSLRLSKDHKPDDPTETRRIEASGGYVHGGRVMGTLSVCRSFGDFVYKPSISVVPFVSVYHFRTYDAWIVIACDGCWDSISDIDAAMLLSTCLSSQAGALKLRDEAYRLNSQDNISVITVRLYLEEGHHHHHH | soluble
MGSDKIHHHHHHMNQHIKGKHLSFEERVIIQLRLKDGYSLRAIARELNCSPSTISYEVKRGTVELYGKVKRYKATQGHDAYQAHRKNCGRKSDFLRKTQFMRYVHKHFFKDGWSLDVCSNRATAVGAFSSRDVVCTKTLYNYVDQGLLDIHNYDLPEKLKRNTKLHRIRKNKKKLGRSIEERPKEINKRNEFGHWECDLVLGHKCTDDEVLLALSERMSREFLILRIPDKTSVSVMQAFKELQRQYSEHWNDIFKTITTDNGSEFADLSNLEKASNTLVYYAHPYTSCDKGTVERHNGLIRRFIPKEEAIANYSLQDIINIETWCNSLPRKILAYHTPDEIFERELDLIYQAA | not soluble
MGSDKIHHHHHHMKKIAIFLPDLRAGGAEKVALLLSNEFVQKGCAVDVILCTAHGEFLSELDTRINVVDLKSPRLRNAFFPLLRYLKAERPDVLLALMWPLTLLAVTAFKFAKLPGRVVVSDHTTFSQAPLLKKKSTRIFFKLSLPMVYSFANARLAVSEGVANDLATLGNIKRSSITVLHNPVSSDTMRFTKEQNEESWQGFSGKKIVAVGALKWEKDYPTLLKAFALLLKKENAYLSIVGQGTLLSELEAIAEQLGIRKQVNFAGFSTMPSAWMASADLLVLSSSCEGFGNVIVESLDVGTAVVSTDCKSGPREILCDGKYGKLVPVGDVDALAQAMVESLNEQHDMDALKLRAAKFSVDKIAKQYLEVFR | not soluble
MNLEMLESQPVPEIDTLREEIDRLDAEILALVKRRAEVSKAIGKARMASGGTRLVHSREMKVIERYSELGPDGKDLAILLLRLGRGRLGH | soluble
MTLDESCKILNIEESKGDLNMDKINNRFNYLFEVNDKEKGGSFYLQSKVYRAAERLKWELAQREK | soluble
MKKLAIVIPAYKVDFFETVLFSLAQQTCKDFTVYIGEDCSRDDFKSLIEQYSKQLDIVYRRFEVNFGGHDLVAQWNRCIQLTQNEPWLWLFSDDDIMGPRCVEYFFNTIAIDNGAFDIYHFDVKIVDCENQIVRIPTVYPSVIDSETFYRRKASARLDSFVVEYIFLRDIYNCTGGFQHFDLAWGSDIATWVKIGADKGIKTISGDYVYWRKSKKNITPNMDNKMVLRKLTADIEFTHWINEFFHKSSVYRFTKYAFFRLVVHYSQAISKSQIRLLLDKAVGKNIISFNDAFIINWTYRFIQLAKRVKDVLYFLEHHHHHH | soluble
MSLTTFIQLHLLTAYPAANLNRDDTGAPKTVVLGGATRLRVSSQSLKRAWRTSALFEQALAGHIGIRSGRIAREAATILIEKGIEEKKAIEWAAKIADYLGKAKNDKKPKDPLTNAETEQLVHISPAEFDAVKALAHQLAEEKRAPKEEDLALLRKDRMAVDIAMFGRMLANKPEFNVEAACQVAHAFGVSETIVEDDFFTAVDDLRQASEDAGAGHLGETGFGSALFYTYICIDKDLLVENLGGDEALANQTLRAFTEAALKVSPTGKQNSFASRAYASWALAEKGTEQPRSLAAAFYEPINGTRQLDVAVQRITTLRENMNTVYEQKTECASFDVMNKQGSMKDVLDFICAEGHHHHHH | soluble
MAHHHHHHMGTLEAQTQGPGSMTPAAHPPRAAIADIAGHLPEQVLTNDVLAQLYPDWPAEKILAKTGIRERRIAAPRETAADLAYEAARKLFAQGAVGADQVDFVILCTQAPDYVLPTSACMLQHRLGIPTHAGALDVNLGCSGYVYGLSLAKGLVETGAARCVLLLTADTYSKYLHPLDKSVRTLFGDGASATAVIAEHGELERIGPFVFGTDGRGAPNLIVKAGLFREPKSADSAREHEDASGNVRTDEHLYMNGAEVMAFSLAEVPRAADRLLALAGEPRENIDCFVLHQANRFMLDALRKKMKIPEHKFPVLMEHCGNTVSSTLPLALETMRANGTLARGMRLMLLGFGVGYSWAGCLVNF | soluble
